Experiments:
[1] = molecular target: full-length HIV-1 gp120 from the clade B YU2 strain (HIV-1 (clade B, strain YU2)) (UniProt P35961); assay: SPR
[2] = molecular target: CD4-mimetic miniprotein M48U1; assay: SPR

Row | Substance | Kd [1] [nM] | koff [1] [s⁻¹] | kon [1] [M⁻¹ s⁻¹] | Kd [2] [nM]
1 | CD4-mimetic miniprotein M48U7 (designed binder) | 0.18 | 0.000446 | 2.42e+06 | 
2 | full-length HIV-1 gp120 from the clade B YU2 strain (from UniProt P35961 32-498) (natural protein) |  |  |  | 0.014
3 | CD4-mimetic miniprotein M48U1 (designed binder) | 0.0154 |  |  | 
